Experimental data published in patent publication US20210054088A1.

Assays:
FcγRIIIa(F) = FcγRIIIa(F) (UniProt P08637); assay: MSD assay, Fcγ receptor coated
FcγRIIb = FcγRIIb (UniProt P31994); assay: MSD assay, Fcγ receptor coated
FcγRI = FcγRI (UniProt P12314); assay: MSD assay, Fcγ receptor coated
FcγRIIIa(V) = FcγRIIIa(V) (UniProt P08637); assay: MSD assay, Fcγ receptor coated
FcγRIIa(H) = FcγRIIa(H) (UniProt P12318); assay: MSD assay, Fcγ receptor coated
Human C1q (human) = Human C1q (human) (UniProt P02745); assay: ELISA, antibody coated, human C1q added
Chain of Human C1q (human) (P02745 23-245 limits assumed, chain 1 of 3): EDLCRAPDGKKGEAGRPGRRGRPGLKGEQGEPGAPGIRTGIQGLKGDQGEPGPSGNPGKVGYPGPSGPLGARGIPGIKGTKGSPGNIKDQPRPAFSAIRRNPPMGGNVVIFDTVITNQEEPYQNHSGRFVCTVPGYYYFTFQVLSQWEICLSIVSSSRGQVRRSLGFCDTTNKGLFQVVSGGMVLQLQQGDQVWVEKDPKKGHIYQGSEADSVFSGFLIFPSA
Chain of Human C1q (human) (P02746 28-253 limits assumed, chain 2 of 3, further chain): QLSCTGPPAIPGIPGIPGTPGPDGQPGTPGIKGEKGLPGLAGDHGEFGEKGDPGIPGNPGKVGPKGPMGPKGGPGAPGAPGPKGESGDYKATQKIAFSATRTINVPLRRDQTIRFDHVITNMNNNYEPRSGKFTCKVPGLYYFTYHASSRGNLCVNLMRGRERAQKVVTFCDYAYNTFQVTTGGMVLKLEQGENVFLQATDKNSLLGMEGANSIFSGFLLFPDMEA
Chain of Human C1q (human) (P02747 29-245 limits assumed, chain 3 of 3, further chain): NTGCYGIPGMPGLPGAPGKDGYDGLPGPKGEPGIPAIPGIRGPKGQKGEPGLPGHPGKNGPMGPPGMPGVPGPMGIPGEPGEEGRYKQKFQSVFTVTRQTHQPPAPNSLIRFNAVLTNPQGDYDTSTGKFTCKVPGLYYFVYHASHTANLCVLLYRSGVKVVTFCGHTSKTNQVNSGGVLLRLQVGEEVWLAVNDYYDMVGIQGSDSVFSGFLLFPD

Chain of FcγRIIb (P31994 43-217 limits assumed): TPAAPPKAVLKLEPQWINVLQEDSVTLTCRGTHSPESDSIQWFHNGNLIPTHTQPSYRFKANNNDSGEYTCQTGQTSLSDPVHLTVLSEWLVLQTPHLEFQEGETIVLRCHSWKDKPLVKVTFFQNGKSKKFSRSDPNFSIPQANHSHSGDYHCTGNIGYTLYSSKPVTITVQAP
Chain of FcγRIIIa(F) (P08637 17-208 limits assumed): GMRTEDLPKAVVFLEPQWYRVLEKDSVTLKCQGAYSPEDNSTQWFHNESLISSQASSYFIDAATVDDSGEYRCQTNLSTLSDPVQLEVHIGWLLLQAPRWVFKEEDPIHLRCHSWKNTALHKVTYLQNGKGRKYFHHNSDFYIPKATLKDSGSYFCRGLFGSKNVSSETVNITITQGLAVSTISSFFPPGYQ
Chain of FcγRIIIa(V) (P08637 17-208 F176V limits assumed): as the sequence (P08637 17-208 limits assumed) above, with F160V counted along it
Chain of FcγRIIa(H) (P12318 36-218 limits assumed): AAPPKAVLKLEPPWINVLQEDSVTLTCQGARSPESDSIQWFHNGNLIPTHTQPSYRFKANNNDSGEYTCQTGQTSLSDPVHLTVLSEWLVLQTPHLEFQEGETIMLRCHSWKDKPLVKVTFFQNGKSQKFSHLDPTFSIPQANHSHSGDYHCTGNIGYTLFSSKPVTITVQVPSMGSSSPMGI
Chain of FcγRI (P12314 16-288 limits assumed): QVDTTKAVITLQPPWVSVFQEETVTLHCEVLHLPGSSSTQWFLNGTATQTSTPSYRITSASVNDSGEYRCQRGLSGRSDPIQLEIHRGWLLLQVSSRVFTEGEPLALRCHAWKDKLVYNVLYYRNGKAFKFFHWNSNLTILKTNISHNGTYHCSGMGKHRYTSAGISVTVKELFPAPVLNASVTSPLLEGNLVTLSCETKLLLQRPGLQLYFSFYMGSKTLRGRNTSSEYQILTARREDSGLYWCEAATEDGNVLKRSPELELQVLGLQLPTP

- EC50 (FcγRIIIa(F)): 19 nM
- EC50 (FcγRIIb): > 134 nM
- EC50 (FcγRI): 0.8 nM
- EC50 (FcγRIIIa(V)): 6.2 nM
- EC50 (FcγRIIa(H)): 93.7 nM
- EC50 (Human C1q (human)): 8.9 nM
Substance: Positive Control IgG1 (Intact Fc receptor effector functionality) (antibody)
